In patent US20120277144A1 (published 2012):

Target: Rac1 (human, UniProt P63000 1-189)
Test: co-immunoprecipitation with anti-FGD5 antibody from lysates of FGD5 overexpressing HUVECs, western blot
Description: GTP-RhoA, Rac1, and cdc42 activation levels were measured using the G-lisa detection system (Tebu-Bio, The Netherlands). For FGD5-protein complex co-immunoprecipitation, magnetic beads (Dynabeads, Invitrogen, The Netherlands) were coated and cross-linked with 2.5 μg anti-FGD5 antibody (Bioscience, The Netherlands) before immunoprecipitation overnight at 4° C. with protein cell lysates of transfected HUVECs (50 μg total protein of a volume of 100 μl incubation buffer). Beads were washed and the protein samples were eluted with eluation buffer (Invitrogen, The Netherlands) before analysis by western blot.

B1: FYVE, RhoGEF and PH domain-containing 5 (FGD5) (enzyme)
chain: MFRGPKPPIAPKPRLTAPNEWRASVYLNDSLNKCSNGRLPCVDRGLDEGPRSIPKCSESETDEDYIVVPRVPLREDEPKDEGSVGNKALVSPESSAEEEEEREEGGEACGLEGTGAGEDSVAPAAPGAGALSREGEEGTDLALEDEGEGCADEPGTLEQVSRSEEEEKLVQPHRECSLEDSGPWAGEGVFQSDLLLPHIHGEDQEPPDTPGEAEEDDEEGCASTDPAGADEGSGPDRPTEDMGQDAEDTSEEPPEKEELAGVQEAETATDCPEVLEEGCEEATGVTGGEQVDLSEPPDHEKKTNQEVAAATLEDHAQDESAEESCQIVPFENDCMEDFVTSLTGSPYEFFPTESTSFCSESCSPLSESAKGLESEQAPKLGLRAEENPMVGALCGQCGSLQGGAAEGPAAPDVVVVLEEEALDDALANPYVMGVGLPGQAAPGEGGQAASDALGGYGSKEELNCEAEGGLVPADRKNTSTRVRPHSGKVAGYVPETVPEETGPEAGSSAPGIGGAAEEVGKTLLSLEGKPLEASRALPAKPRAFTLYPRSFSVEGREIPVSVYQEPEGSGLDDHRIKRKEDNLSLSCVIGSSGSFSQRNHLPSSGTSTPSSMVDIPPPFDLACITKKPITKSSPSLLIESDSPDKYKKKKSSFKRFLALTFKKKTENKLHVDVNVSSSRSSSESSYHGPSRILEVDRRSLSNSPQLKSRTGKLRASESPSSLIFYRDGKRKGVPFSRTVSRVESFEDRSRPPFLPLPLTKPRSISFPSADTSDYENIPAMNSDYENIQIPPRRPARAGAFTKLFEDQSRALSTANENDGYVDMSSFNAFESKQQSADQDAESAYTEPYKVCPISSAAPKEDLTSDEEQRSSEEEDSASRDPSVTHKVEGQSRALVIAQELLSSEKAYVEMLQHLNLDFHGAVMRALDDMDHEGRDTLAREELRQGLSELPAIHDLHQGILEELEERLSNWESQQKVADVFLAREQGFDHHATHILQFDRYLGLLSENCLHSPRLAAAVREFEQSVQGGSQTAKHRLLRVVQRLFQYQVLLTDYLNNLCPDSAEYDNTQGALSLISKVTDRANDSMEQGENLQKLVHIEHSVRGQGDLLQPGREFLKEGTLMKVTGKNRRPRHLFLMNDVLLYTYPQKDGKYRLKNTLAVANMKVSRPVMEKVPYALKIETSESCLMLSASSCAERDEWYGCLSRALPEDYKAQALAAFHHSVEIRERLGVSLGERPPTLVPVTHVMMCMNCGCDFSLTLRRHHCHACGKIVCRNCSRNKYPLKYLKDRMAKVCDGCFGELKKRGRAVPGLMRERPVSMSFPLSSPRFSGSAFSSVFQSINPSTFKKQKKVPSALTEVAASGEGSAISGYLSRCKRGKRHWKKLWFVIKGKVLYTYMASEDKVALESMPLLGFTIAPEKEEGSSEVGPIFHLYHKKTLFYSFKAEDTNSAQRWIEAMEDASVL
notes: Guanine-nucleotide exchange factor; The co-IP used lysates of HUVECs transfected with adenovirus encoding human FGD5 cDNA; also called Ad-FGD5 transgene product
**Q.** Does B1 bind?
**A.** no binding
